Target: HLA-A*02:01 (Homo sapiens, UniProt P04439, D140Y/D185E/D98H/E176V/E277Q/G131W/G231S/I119V/I121R/I166T/I218V/L300P/L318F/N151K/N90K/P208A/P217A/Q86G/Q94H/R138H/R169H/T345S)
Experiment: MHC binding assay (UV-ligand exchange, beta2m ELISA)
Details: binding to HLA-A*02:01, UV-ligand exchange
Description: Candidate peptides for T cell based therapies according to the present invention were further tested for their MHC binding capacity (affinity). The individual peptide-MHC complexes were produced by UV-ligand exchange, where a UV-sensitive peptide is cleaved upon UV-irradiation, and exchanged with the peptide of interest as analyzed. Only peptide candidates that can effectively bind and stabilize the peptide-receptive MHC molecules prevent dissociation of the MHC complexes. To determine the yield of the exchange reaction, an ELISA was performed based on the detection of the light chain (β2m) of stabilized MHC complexes. The assay was performed as generally described in Rodenko et al. (Rodenko et al., 2006).
96 well MAXISorp plates (NUNC) were coated over night with 2 ug/ml streptavidin in PBS at room temperature, washed 4× and blocked for 1 h at 37° C. in 2% BSA containing blocking buffer. Refolded HLA-A*02:01/MLA-001 monomers served as standards, covering the range of 15-500 ng/ml. Peptide-MHC monomers of the UV-exchange reaction were diluted 100 fold in blocking buffer. Samples were incubated for 1 h at 37° C., washed four times, incubated with 2 ug/ml HRP conjugated anti-β2m for 1 h at 37° C., washed again and detected with TMB solution that is stopped with […]. Absorption was measured at 450 nm. Candidate peptides that show a high exchange yield (preferably higher than 50%, most preferred higher than 75%) are generally preferred for a generation and production of antibodies or fragments thereof, and/or T cell receptors or fragments thereof, as they show sufficient avidity to the MHC molecules and prevent dissociation of the MHC complexes.

Row | Peptide exchange (MHC class I binding score, peptide exchange yield) | Substance
1 | “++++” (≥75% = ++++) | 182 (LLPPPPPVA; listed as Homo sapiens) [compound 182]
2 | “++” (≥20% = ++) | 133 (ALEELTGFREL; listed as Homo sapiens) [compound 133]
3 | “+” (≥10% = +) | 185 (FIAQLNNVEL; listed as Homo sapiens) [compound 185]
4 | “++” (≥20% = ++) | 204 (RLCDIVVNV; listed as Homo sapiens) [compound 204]
5 | “++++” (≥75% = ++++) | 269 (VLQNVAFSV; listed as Homo sapiens) [compound 269]
6 | “+++” (≥50 = +++) | 80 (YLFDEIDQA; listed as Homo sapiens) [compound 80]
7 | “+++” (≥50 = +++) | 208 (FLAVSLPLL; listed as Homo sapiens) [compound 208]
8 | “+++” (≥50 = +++) | 119 (ELCDIILRV; listed as Homo sapiens) [compound 119]
9 | “+++” (≥50 = +++) | 150 (ILSEKEYKL; listed as Homo sapiens) [compound 150]
10 | “+++” (≥50 = +++) | 94 (LLAGQATTAYF; listed as Homo sapiens) [compound 94]
11 | “++++” (≥75% = ++++) | 236 (SLFDGFFLTA; listed as Homo sapiens) [compound 236]
12 | “+++” (≥50 = +++) | 245 (KLIQLPVVYV; listed as Homo sapiens) [compound 245]
13 | “+++” (≥50 = +++) | 145 (GLLHEVVSL; listed as Homo sapiens) [compound 145]
14 | “+++” (≥50 = +++) | 104 (VLLGLPLLV; listed as Homo sapiens) [compound 104]
15 | “++++” (≥75% = ++++) | 138 (NLINNIFEL; listed as Homo sapiens) [compound 138]
16 | “++++” (≥75% = ++++) | 266 (QLTEMLPSI; listed as Homo sapiens) [compound 266]
17 | “++” (≥20% = ++) | 230 (IMDDDSYGV; listed as Homo sapiens) [compound 230]
18 | “+++” (≥50 = +++) | 175 (VMESILLRL; listed as Homo sapiens) [compound 175]
19 | “+++” (≥50 = +++) | 78 (AMEEAVAQV; listed as Homo sapiens) [compound 78]
20 | “++” (≥20% = ++) | 219 (ALLELENSV; listed as Homo sapiens) [compound 219]
21 | “+++” (≥50 = +++) | 92 (KLLFEIASA; listed as Homo sapiens) [compound 92]

Row | Peptide exchange (MHC class I binding score, peptide exchange yield) | Substance
22 | “+++” (≥50 = +++) | 177 (YLYEAEEATTL; listed as Homo sapiens) [compound 177]
23 | “+++” (≥50 = +++) | 306 (AQVALVNEV; listed as Homo sapiens) [compound 306]
24 | “++” (≥20% = ++) | 192 (GMAAEVPKV; listed as Homo sapiens) [compound 192]
25 | “+++” (≥50 = +++) | 283 (ALMPVTPQA; listed as Homo sapiens) [compound 283]
26 | “+++” (≥50 = +++) | 102 (SLFAAISGMIL; listed as Homo sapiens) [compound 102]
27 | “+++” (≥50 = +++) | 50 (LLLDGLIYL; listed as Homo sapiens) [compound 50]
28 | “+++” (≥50 = +++) | 264 (ILTGTPPGV; listed as Homo sapiens) [compound 264]
29 | “+++” (≥50 = +++) | 218 (ALDQFLEGI; listed as Homo sapiens) [compound 218]
30 | “++++” (≥75% = ++++) | 15 (IIIEDLLEA; listed as Homo sapiens) [compound 15]
31 | “+++” (≥50 = +++) | 89 (GLTALHVAV; listed as Homo sapiens) [compound 89]
32 | “+++” (≥50 = +++) | 127 (HLMEENMIVYV; listed as Homo sapiens) [compound 127]
33 | “+++” (≥50 = +++) | 111 (YLLDTLLSL; listed as Homo sapiens) [compound 111]
34 | “+++” (≥50 = +++) | 134 (ALGRLGILSV; listed as Homo sapiens) [compound 134]
35 | “+++” (≥50 = +++) | 201 (YLNISQVNV; listed as Homo sapiens) [compound 201]
36 | “+++” (≥50 = +++) | 302 (SLAELDEKISA; listed as Homo sapiens) [compound 302]
37 | “++++” (≥75% = ++++) | 93 (KLLGSLQLL; listed as Homo sapiens) [compound 93]
38 | “++” (≥20% = ++) | 224 (FLSPLLPLL; listed as Homo sapiens) [compound 224]
39 | “+++” (≥50 = +++) | 288 (RLAPEIVSA; listed as Homo sapiens) [compound 288]
40 | “+++” (≥50 = +++) | 143 (TLHAVDVTL; listed as Homo sapiens) [compound 143]
41 | “+++” (≥50 = +++) | 251 (VLYELFTYI; listed as Homo sapiens) [compound 251]
42 | “++++” (≥75% = ++++) | 296 (FILEPLYKI; listed as Homo sapiens) [compound 296]

Row | Peptide exchange (MHC class I binding score, peptide exchange yield) | Substance
43 | “+++” (≥50 = +++) | 103 (SLQDHLEKV; listed as Homo sapiens) [compound 103]
44 | “+++” (≥50 = +++) | 124 (FLGVVVPTV; listed as Homo sapiens) [compound 124]
45 | “+” (≥10% = +) | 97 (LLNFSPGNL; listed as Homo sapiens) [compound 97]
46 | “++++” (≥75% = ++++) | 71 (VLLDYVGNVQL; listed as Homo sapiens) [compound 71]
47 | “+++” (≥50 = +++) | 286 (HLTEDTPKV; listed as Homo sapiens) [compound 286]
48 | “+++” (≥50 = +++) | 304 (ALIRLDDLFL; listed as Homo sapiens) [compound 304]
49 | “+++” (≥50 = +++) | 217 (AQFGAVLEV; listed as Homo sapiens) [compound 217]
50 | “+++” (≥50 = +++) | 297 (ILQNGLETL; listed as Homo sapiens) [compound 297]
51 | “++++” (≥75% = ++++) | 171 (TLLDVISAL; listed as Homo sapiens) [compound 171]
52 | “+++” (≥50 = +++) | 309 (SLSFVSPSL; listed as Homo sapiens) [compound 309]
53 | “++++” (≥75% = ++++) | 275 (KLMDLEDCAL; listed as Homo sapiens) [compound 275]
54 | “++++” (≥75% = ++++) | 280 (SLLNHLPYL; listed as Homo sapiens) [compound 280]
55 | “++” (≥20% = ++) | 38 (YLTAEILELAGN; listed as Homo sapiens) [compound 38]
56 | “++++” (≥75% = ++++) | 271 (YLLDQPVLEQRL; listed as Homo sapiens) [compound 271]
57 | “+++” (≥50 = +++) | 113 (FVIDSFEEL; listed as Homo sapiens) [compound 113]
58 | “+++” (≥50 = +++) | 195 (ALIPDLNQI; listed as Homo sapiens) [compound 195]
59 | “+++” (≥50 = +++) | 183 (VLFETVLTI; listed as Homo sapiens) [compound 183]
60 | “++” (≥20% = ++) | 206 (SAVSGQWEV; listed as Homo sapiens) [compound 206]
61 | “++++” (≥75% = ++++) | 293 (GLAMVEAISYV; listed as Homo sapiens) [compound 293]

Reference: patent US10702592B2, “Peptides and combination of peptides for use in immunotherapy against NHL and other cancers” (Immatics Biotechnologies GmbH, priority 2016, dated 2020)
